Data published in PMC6171324.

How the values were obtained:
[1] = weighing, 28 days post-MI; settings: glycan lost; control: Luc modRNA
[2] = CD45 staining 7 days post-MI; settings: glycan lost; control: hFSTL1 modRNA
[3] = CM size in heart sections 7 days post-MI; settings: glycan lost; control: control constructs
[4] = echography, %EF and %FS, 28 days post-MI; settings: glycan lost; control: Luc modRNA (hFSTL1 modRNA not significant)
[5] = Masson trichrome staining, 28 days post-MI; settings: glycan lost; control: Luc modRNA (hFSTL1 modRNA not significant)
[6] = CD31 staining, left ventricle, 28 days post-MI; settings: glycan lost; control: Luc modRNA
[7] = proliferation markers in non-CMs 7 days post-MI; settings: glycan lost; control: hFSTL1 modRNA

Protein	other: heart weight-to-body weight ratio [1]	other: leukocyte infiltration in heart [2]	other: CM size / hypertrophy [3]	other: cardiac function post-MI [4]	other: scar size post-MI [5]	other: capillary density post-MI [6]	other: non-CM proliferation in heart [7]
human FSTL 1 (hFSTL1): N180Q (Mut-1) (protein) parent chain: MWKRWLALALALVAVAWVRAEEELRSKSKICANVFCGAGRECAVTEKGEPTCLCIEQCKPHKRPVCGSNGKTYLNHCELHRDACLTGSKIQVDYDGHCKEKKSVSPSASPVVCYQSNRDELRRRIIQWLEAEIIPDGWFSKGSNYSEILDKYFKNFDNGDSRLDSSEFLKFVEQNETAINITTYPDQENNKLLRGLCVDALIELSDENADWKLSFQEFLKCLNPSFNPPEKKCALEDETYADGAETEVDCNRCVCACGNWVCTAMTCDGKNQKGAQTQTEEEMTRYVQELQKHQETAEKTKRVSTKEI	increases	no change	no change	increases	decreases	increases	no change
human FSTL 1 (hFSTL1): N175Q (Mut-2) (protein) parent chain: MWKRWLALALALVAVAWVRAEEELRSKSKICANVFCGAGRECAVTEKGEPTCLCIEQCKPHKRPVCGSNGKTYLNHCELHRDACLTGSKIQVDYDGHCKEKKSVSPSASPVVCYQSNRDELRRRIIQWLEAEIIPDGWFSKGSNYSEILDKYFKNFDNGDSRLDSSEFLKFVEQNETAINITTYPDQENNKLLRGLCVDALIELSDENADWKLSFQEFLKCLNPSFNPPEKKCALEDETYADGAETEVDCNRCVCACGNWVCTAMTCDGKNQKGAQTQTEEEMTRYVQELQKHQETAEKTKRVSTKEI		no change					no change
human FSTL 1 (hFSTL1): Mut-(1–3) (protein) parent chain: MWKRWLALALALVAVAWVRAEEELRSKSKICANVFCGAGRECAVTEKGEPTCLCIEQCKPHKRPVCGSNGKTYLNHCELHRDACLTGSKIQVDYDGHCKEKKSVSPSASPVVCYQSNRDELRRRIIQWLEAEIIPDGWFSKGSNYSEILDKYFKNFDNGDSRLDSSEFLKFVEQNETAINITTYPDQENNKLLRGLCVDALIELSDENADWKLSFQEFLKCLNPSFNPPEKKCALEDETYADGAETEVDCNRCVCACGNWVCTAMTCDGKNQKGAQTQTEEEMTRYVQELQKHQETAEKTKRVSTKEI		no change	no change	no change	no change		no change
human FSTL 1 (hFSTL1): N144Q (Mut-3) (protein) parent chain: MWKRWLALALALVAVAWVRAEEELRSKSKICANVFCGAGRECAVTEKGEPTCLCIEQCKPHKRPVCGSNGKTYLNHCELHRDACLTGSKIQVDYDGHCKEKKSVSPSASPVVCYQSNRDELRRRIIQWLEAEIIPDGWFSKGSNYSEILDKYFKNFDNGDSRLDSSEFLKFVEQNETAINITTYPDQENNKLLRGLCVDALIELSDENADWKLSFQEFLKCLNPSFNPPEKKCALEDETYADGAETEVDCNRCVCACGNWVCTAMTCDGKNQKGAQTQTEEEMTRYVQELQKHQETAEKTKRVSTKEI		no change					no change
